From doi:10.1101/2020.01.02.893016 (bioRxiv, 2020)
Positions count from the first letter of the chain named. In names and notes the source's numbering stands.

Target: T1, ROOTY (RTY) protein, wild type, C-S lyase (Arabidopsis thaliana, UniProt Q9SIV0 1-462)
T1 sequence (looked up): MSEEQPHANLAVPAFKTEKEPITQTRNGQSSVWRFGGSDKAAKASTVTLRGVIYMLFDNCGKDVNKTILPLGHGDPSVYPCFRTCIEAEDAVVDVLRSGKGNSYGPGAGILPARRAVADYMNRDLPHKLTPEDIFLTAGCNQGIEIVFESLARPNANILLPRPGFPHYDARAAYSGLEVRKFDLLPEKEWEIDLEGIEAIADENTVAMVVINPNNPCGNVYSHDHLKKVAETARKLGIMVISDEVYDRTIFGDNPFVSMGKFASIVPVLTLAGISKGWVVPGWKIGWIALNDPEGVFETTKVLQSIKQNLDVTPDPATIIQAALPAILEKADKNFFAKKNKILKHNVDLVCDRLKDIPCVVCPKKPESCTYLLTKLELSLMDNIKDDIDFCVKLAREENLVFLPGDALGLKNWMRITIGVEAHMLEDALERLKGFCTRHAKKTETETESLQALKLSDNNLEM
Assay: two-hybrid

- beta-galactosidase activity relative to WT-WT: ~80%
B1: ROOTY (RTY) protein, D315N mutant (TG8B allele) (enzyme, Arabidopsis thaliana, UniProt Q9SIV0 1-462, looked up)
chain: T1 sequence (looked up) with D315N
